± gives the standard deviation of the averaged measurements.
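Note: ATP exposure 15 min at 22 °C before imaging.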

The data set deals with ATP. As to the kind of experiment: switch fluorescence ratio, 500 uM ATP over buffer (Cy3 cluster intensity, sum of 5 cycles each) (fold (ratio)); higher = stronger signal-on switching upon ATP binding; sequences stand for … in TCGTCGGCAGCGTCAGATGTGTATAAGAGACAGTTTTTTTTTTTTTTTTTTTTTTTTT…TC. Conditions: aptamer strand: ATP DNA aptamer (quencher-CACCTGGGGGAGTATTGCGGAGGAAGG + anchor), 100 nM annealed; ATP concentration: 500 uM. The method in brief:
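The fluorescence ratio divides summed target-cycle Cy3 intensity by summed buffer-cycle Cy3 intensity for each cluster and is averaged per switch-domain sequence. Cy3-labelled switching-strand clusters on a modified Illumina MiSeq flow-cell were annealed to 100 nM quencher-labelled ATP aptamer, then imaged in selection buffer and again after 15 min with 500 uM ATP at 22 °C. Five such cycles were run, with NaOH stripping and re-annealing between them, and clusters outside 100-1000 RFU were excluded.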
With CTTGGGGTTA, the switch fluorescence ratio worked out at 0.998 ± 0.023. Turning to ATTGCTGTTT, the switch fluorescence ratio is 1.037 ± 0.0019. Consider GTTGATAAGG, for which the switch fluorescence ratio was 1.01 ± 0.045. In the case of AGGAGAGGTG, the switch fluorescence ratio was 1.102 ± 0.002. For the sequence AAAAAAATCG, the switch fluorescence ratio was 1.01 ± 0.028. With TTCGGGCGAA, the switch fluorescence ratio turned out to be 1 ± 0.029. With GGGAGCTGAG, the switch fluorescence ratio turned out to be 1.015 ± 0.0055. As to GGGTCTTGTA, the switch fluorescence ratio amounted to 0.99 ± 0.016.

Consider ATAAGAAACG, for which the switch fluorescence ratio is 0.946 ± 0.064. As for GGGTCCTGGG, the switch fluorescence ratio was 0.973 ± 0.012. Consider ACATTGAACG, for which the switch fluorescence ratio was 1.07 ± 0.017. Consider CGGGGTACCT, for which the switch fluorescence ratio came to 1.01 ± 0.054.

As to AGGTAGGGTA, the switch fluorescence ratio came out at 0.992 ± 0.031. As for ATTGGGGTTT, the figure is 1 ± 0.019.

ACTGCCCGGC: the switch fluorescence ratio turned out to be 1.1 ± 0.12. As for TTAAGGGGAT, the switch fluorescence ratio was found to be 1 ± 0.032. As for TCTCCCGGCA, the figure is 1.34 ± 0.2; as for CGCTGGCCTT, 0.975 ± 0.016; as for TCGTTAGAGG, 0.9718 ± 0.0073. Regarding ATCGGAGACA, the switch fluorescence ratio stood at 0.9681 ± 0.0067. With GGGAAGGTTG, the switch fluorescence ratio is 1.04 ± 0.021. As to AGGGGTTAGG, the switch fluorescence ratio was 0.992 ± 0.021. Turning to TCCTTTACTG, the switch fluorescence ratio is 0.9779 ± 0.0072. As to CGGGATTTTT, the switch fluorescence ratio is 0.973 ± 0.054.

Regarding AGGAGGTGGT, the switch fluorescence ratio is 1.04 ± 0.015.

Consider TCGGACAGGC, for which the switch fluorescence ratio turned out to be 1.03 ± 0.035. TTTTAGTTTT: the switch fluorescence ratio worked out at 1 ± 0.031. As for ATTTTACAGC, the switch fluorescence ratio is 1.03 ± 0.0074.

As to TTTCAATAGG, the switch fluorescence ratio worked out at 1.01 ± 0.024. As for GAGTGCATGG, the figure is 1 ± 0.012; as for AAGCCGTTTG, 1.07 ± 0.088. For the sequence AGTGCAGGCA, the switch fluorescence ratio came out at 1 ± 0.034. On to GACAGGTTAG, for which the switch fluorescence ratio is 0.9809 ± 0.0069. Regarding TAGGTTGTGC, the switch fluorescence ratio was found to be 0.976 ± 0.037.

On to AGGGTTTTCT, for which the switch fluorescence ratio was 1 ± 0.012. GGGCCTTTTT: the switch fluorescence ratio worked out at 0.9864 ± 0.006. Regarding TTAAAAGCGT, the switch fluorescence ratio is 1.02 ± 0.013. In the case of TTATTTATCG, the switch fluorescence ratio is 0.987 ± 0.026. The same measure for GGCCCCGGAT: 1 ± 0.07. Consider GGGTCTTTGT, for which the switch fluorescence ratio turned out to be 0.981 ± 0.026. For TCACGGGTTC, the switch fluorescence ratio is 1.03 ± 0.031. The same measure for GCTCATGAAT: 1 ± 0.023. GAGAAACATT: the switch fluorescence ratio amounted to 1.06 ± 0.029. Regarding TAAAGGAATT, the switch fluorescence ratio came out at 1.05 ± 0.03.

Take TACTATACGA: the switch fluorescence ratio was 1.367 ± 0.0015.

Regarding GTTCGGGTTG, the switch fluorescence ratio was found to be 0.988 ± 0.027. Turning to TTTACGGAGC, the switch fluorescence ratio is 1.37 ± 0.075. As for TTAGGGGGT, the switch fluorescence ratio was 0.976 ± 0.059.

In the case of TCGACTGAGG, the switch fluorescence ratio was 1.03 ± 0.031. The same measure for ATATTGGGAG: 0.99 ± 0.025; for CGGGTTGTGG: 1.02 ± 0.062; for GAGCGCTTGG: 1.01 ± 0.037.

Consider AAGGCAGATC, for which the switch fluorescence ratio was 1.05 ± 0.037.

With CGTGGAGGTG, the switch fluorescence ratio amounted to 1.07 ± 0.036. Regarding TGCCATCCTA, the switch fluorescence ratio stood at 0.9913 ± 0.005.

With TGGGAGTTAG, the switch fluorescence ratio was 0.943 ± 0.03. As for ACGCCCACTA, the figure is 1.38 ± 0.1; as for TCACGGAAGT, 1.022 ± 0.0036. For TGCCCCGCCT, the switch fluorescence ratio was determined as 0.996 ± 0.044.

Regarding ATGGCAGTGT, the switch fluorescence ratio was determined as 0.993 ± 0.018. Consider TTGGGATTGG, for which the switch fluorescence ratio is 0.968 ± 0.018. The same measure for GGCGGGGCTT: 0.968 ± 0.025; for TGAGCGGGTG: 1.01 ± 0.01. For the sequence TCGGCTGTTG, the switch fluorescence ratio was determined as 1 ± 0.028. With GGGTTTTAGC, the switch fluorescence ratio turned out to be 1.03 ± 0.076. Consider ACGGTTGTTC, for which the switch fluorescence ratio was 1.027 ± 0.005. As for ATGTAATTTG, the figure is 0.988 ± 0.03; as for TAATTCGTAC, 1.07 ± 0.078; as for CAGTATGTAG, 0.957 ± 0.02. Consider AGGTCTTGGG, for which the switch fluorescence ratio amounted to 0.972 ± 0.027. GGTGGTACTG: the switch fluorescence ratio is 1.01 ± 0.037. The same measure for TAACGGGTTG: 1.03 ± 0.029.

As for TACTGGGCTT, the switch fluorescence ratio is 1.024 ± 0.0014. On to TTCCGGGATC, for which the switch fluorescence ratio stood at 1.91 ± 0.092. For the sequence TCGGAAGATT, the switch fluorescence ratio came to 1.01 ± 0.034. For TTTTTGCTCA, the switch fluorescence ratio was 0.9912 ± 0.0055.

For GGGCTTTTTC, the switch fluorescence ratio worked out at 1.02 ± 0.034. Turning to GGGGAGGTTG, the switch fluorescence ratio was 0.991 ± 0.037.

In the case of GGATCGTTCC, the switch fluorescence ratio was 1.1 ± 0.017.
